Data from article PMC5700975 (2017).

B1: Myc3-iSH2-p110β (wild type) [bovine | human] / GST-Rab5 wild-type [canine] (parent complex)
chain 1: LYEDYTRTSQEIQMKRTAIEAFNETIKIFEEQCQTQERYSKEYIEKFKREGNETEIQRIMHNYEKLKSRISEIVDSRRRLEEDLKKQAAEYREIDKRMNSIKGGGGGGGMCFSFIMPPAMADILDIWAVDSQIASDGSIPVDFLLPTGIYIQLEVPREATISYIKQMLWKQVHNYPMFNLLMDIDSYMFACVNQTAVYEELEDETRRLCDVRPFLPVLKLVTRSCDPGEKLDSKIGVLIGKGLHEFDSLKDPEVNEFRRKMRKFSEEKILSLVGLSWMDWLKQTYPPEHEPSIPENLEDKLYGGKLIVAVHFENCQDVFSFQVSPNMNPIKVNELAIQKRLTIHGKEDEVSPYDYVLQVSGRVEYVFGDHPLIQFQYIRNCVMNRALPHFILVECCKIKKMYEQEMIAIEAAINRNSSNLPLPLPPKKTRIISHVWENNNPFQIVLVKGNKLNTEETVKVHVRAGLFHGTELLCKTIVSSEVSGKNDHIWNEPLEFDINICDLPRMARLCFAVYAVLDKVKTKKSTKTINPSKYQTIRKAGKVHYPVAWVNTMVFDFKGQLRTGDIILHSWSSFPDELEEMLNPMGTVQTNPYTENATALHVKFPENKKQPYYYPPFDKIIEKAAEIASSDSANVSSRGGKKFLPVLKEILDRDPLSQLCENEMDLIWTLRQDCREIFPQSLPKLLLSIKWNKLEDVAQLQALLQIWPKLPPREALELLDFNYPDQYVREYAVGCLRQMSDEELSQYLLQLVQVLKYEPFLDCALSRFLLERALGNRRIGQFLFWHLRSEVHIPAVSVQFGVILEAYCRGSVGHMKVLSKQVEALNKLKTLNSLIKLNAVKLNRAKGKEAMHTCLKQSAYREALSDLQSPLNPCVILSELYVEKCKYMDSKMKPLWLVYNNKVFGEDSVGVIFKNGDDLRQDMLTLQMLRLMDLLWKEAGLDLRMLPYGCLATGDRSGLIEVVSTSETIADIQLNSSNVAAAAAFNKDALLNWLKEYNSGDDLDRAIEEFTLSCAGYCVASYVLGIGDRHSDNIMVKKTGQLFHIDFGHILGNFKSKFGIKRERVPFILTYDFIHVIQQGKTGNTEKFGRFRQCCEDAYLILRRHGNLFITLFALMLTAGLPELTSVKDIQYLKDSLALGKSEEEALKQFKQKFDEALRESWTTKVNWMAHTVRKDYRS
chain 2: ANRGATRPNGPNTGNKICQFKLVLLGESAVGKSSLVLRFVKGQFHEFQESTIGAAFLTQTVCLDDTTVKFEIWDTAGQERYHSLAPMYYRGAQAAIVVYDITNEESFARAKNWVKELQRQASPNIVIALSGNKADLANKRAVDFQEAQSYADDNSLLFMETSAKTSMNVNEIFMAIAKKLPKNEPQNPGANSARGRGVDLTEPTQPTRSQCCSN

Variants of: B1
Experiment: GST pull-down, anti-Myc immunoblot quantification; GST-Rab5 fusion proteins (10 µg) on glutathione Sepharose beads, GppCp-loaded; Myc-iSH2-p110β from transfected COS-1 lysates; parent: 100; read off a plot

Row | Variant | percent of parent [% WT]
1 | chain 2 Y88A | ~15
2 | chain 2 Y81A | ~8
3 | chain 2 H45A | ~110
4 | chain 2 H82E | ~12
5 | chain 2 S83A | ~112
6 | chain 2 W73A | ~26
7 | chain 2 R80E | ~23
8 | chain 2 R90E | ~20
9 | chain 2 I52A | ~7
10 | chain 2 L84A | ~16
11 | chain 2 Q43E | ~115
12 | chain 2 E46A | ~72
13 | chain 2 F56A | ~24

Variants of: B1
Experiment: GST pull-down, anti-Myc immunoblot quantification; GST-Rab5 loaded with GppCp; parent: 100; read off a plot

Row | Variant | percent of parent [% WT]
14 | chain 1 Y353A | ~7
15 | chain 1 L341A | ~117
16 | chain 1 D348R | ~190
